Measured values reported in patent US20200024639A1.

Biological target: HA-NanoLuc-VAMP2 (UniProt P63027)
Assay: cell-based or functional assay

Sequence of UniProt P63027 (P63027 1-116, tags or fused parts left off): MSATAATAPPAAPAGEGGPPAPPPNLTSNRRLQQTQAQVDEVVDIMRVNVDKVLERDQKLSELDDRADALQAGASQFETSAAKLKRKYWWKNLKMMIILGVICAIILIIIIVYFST

“botulinum neurotoxin type B (from UniProt P10844 2-1291) (enzyme)” showed a cleavage of the reporter in SiMa cells, immunoblot with total VAMP2 antibody of 10 nM.
